# Source: patent publication US11471462B2, “Compositions and methods for detecting and treating diabetes” (THE BROAD INSTITUTE, INC., priority 2016, dated 2022)
# B1: SEC61A1 (protein)
# chain: MTQTARVLVKFLEVIKPFCVILPEIQKPERKIQFKEKVLWTAITLFIFLVCCQIPLFGIMSSDSADPFYWMRVILASNRGTLMELGISPIVTSGLIMQLLAGAKIIEVGDTPKDRALFNGAQKLFGMIITIGQSIVYVMTGMYGDPSEMGAGICLLITIQLFVAGLIVLLLDELLQKGYGLGSGISLFIATNICETIVWKAFSPTTVNTGRGMEFEGAIIALFHLLATRTDKVRALREAFYRQNLPNLMNLIATIFVFAVVIYFQGFRVDLPIKSARYRGQYNTYPIKLFYTSNIPIILQSALVSNLYVISQMLSARFSGNLLVSLLGTWSDTSSGGPARAYPVGGLCYYLSPPESFGSVLEDPVHAVVYIVFMLGSCAFFSKTWIEVSGSSAKDVAKQLKEQQMVMRGHRETSMVHELNRYIPTAAAFGGLCIGALSVLADFLGAIGSGTGILLAVTIIYQYFEIFVKEQSEVGSMGALLF
# B2: DHCR7 (protein)
# chain: MAAKSQPNIPKAKSLDGVTNDRTASQGQWGRAWEVDWFSLASVIFLLLFAPFIVYYFIMACDQYSCALTGPVVDIVTGHARLSDIWAKTPPITRKAAQLYTLWVTFQVLLYTSLPDFCHKFLPGYVGGIQEGAVTPAGVVNKYQINGLQAWLLTHLLWFANAHLLSWFSPTIIFDNWIPLLWCANILGYAVSTFAMVKGYFFPTSARDCKFTGNFFYNYMMGIEFNPRIGKWFDFKLFFNGRPGIVAWTLINLSFAAKQRELHSHVTNAMVLVNVLQAIYVIDFFWNETWYLKTIDICHDHFGWYLGWGDCVWLPYLYTLQGLYLVYHPVQLSTPHAVGVLLLGLVGYYIFRVANHQKDLFRRTDGRCLIWGRKPKVIECSYTSADGQRHHSKLLVSGFWGVARHFNYVGDLMGSLAYCLACGGGHLLPYFYIIYMAILLTHRCLRDEHRCASKYGRDWERYTAAVPYRLLPGIF
# B3: EMC3 (protein)
# chain: AGPELLLDSNIRLWVVLPIVIITFFVGMIRHYVSILLQSDKKLTQEQVSDSQVLIRSRVLRENGKYIPKQSFLTRKYYFNNPEDGFFKKTKRKVVPPSPMTDPTMLTDMMKGNVTNVLPMILIGGWINMTFSGFVTTKVPFPLTLRFKPMLQQGIELLTLDASWVSSASWYFLNVFGLRSIYSLILGQDNAADQSRMMQEQMTGAAMAMPADTNKAFKTEWEALELTDHQWALDDVEEELMAKDLHFEGMFKKELQTSIF
# B4: DNAJC3 (protein)
# chain: GVNADVEKHLELGKKLLAAGQLADALSQFHAAVDGDPDNYIAYYRRATVFLAMGKSKAALPDLTKVIQLKMDFTAARLQRGHLLLKQGKLDEAEDDFKKVLKSNPSENEEKEAQSQLIKSDEMQRLRSQALNAFGSGDYTAAIAFLDKILEVCVWDAELRELRAECFIKEGEPRKAISDLKAASKLKNDNTEAFYKISTLYYQLGDHELSLSEVRECLKLDQDHKRCFAHYKQVKKLNKLIESAEELIRDGRYTDATSKYESVMKTEPSIAEYTVRSKERICHCFSKDEKPVEAIRVCSEVLQMEPDNVNALKDRAEAYLIEEMYDEAIQDYETAQEHNENDQQIREGLEKAQRLLKQSQKRDYYKILGVKRNAKKQEIIKAYRKLALQWHPDNFQNEEEKKKAEKKFIDIAAAKEVLSDPEMRKKFDDGEDPLDAESQQGGGGNPFHRSWNSWQGFNPFSSGGPFRFKFHFN
# B5: SLC25A3 (protein)
# chain: AVEEYSCEFGSAKYYALCGFGGVLSCGLTHTAVVPLDLVKCRMQVDPQKYKGIFNGFSVTLKEDGVRGLAKGWAPTFLGYSMQGLCKFGFYEVFKVLYSNMLGEENTYLWRTSLYLAASASAEFFADIALAPMEAAKVRIQTQPGYANTLRDAAPKMYKEEGLKAFYKGVAPLWMRQIPYTMMKFACFERTVEALYKFVVPKPRSECSKPEQLVVTFVAGYIAGVFCAIVSHPADSVVSVLNKEKGSSASLVLKRLGFKGVWKGLFARIIMIGTLTALQWFIYDSVKVYFRLPRPPPPEMPESLKKKLGLTQ
# System: SLC16A11
# Assay: SLC16A11 protein-protein interaction study (immunoprecipitation, quantitative mass spectrometry)
# Design: species or system human
# Details: putative SLC16A11^REF interaction partners; immunoprecipitation from HEK293T cells vs empty vector control; Blandt-Altman
row,Molecule,BA log fold change
1,B1,1.84
2,B2,1.69
3,B3,1.65
4,B4,1.22
5,B5,1.65
